Source: patent US20240270801A1, “EPITOPE PEPTIDE OF HUMAN ALPHA-SYNUCLEIN AND PHARMACEUTICAL COMPOSITION INCLUDING SAID PEPTIDE” (Sumitomo Pharma Co., Ltd., priority 2021, published 2024)
No end group written: not given here. KLH = keyhole limpet hemocyanin

Legend:
[1] = system: aggregated human αSyn; assay: Antibody-inducing ability in mice: ELISA antibody titer of immune serum with respect to aggregated human αSyn; format: in vivo, mouse
Procedure, shortened: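 Female balb/c mice (6 weeks) immunized i.m. twice, 2 weeks apart, with conjugate (250 μg/mouse) or KLH-DMPVDPDN (25 μg/mouse) plus Alum (50 μg/mouse); serum taken 2 weeks after second dose. ELISA on plates coated with aggregated human αSyn (15 ng/well), anti-mouse IgG-HRP, TMB, A450; titers expressed relative to reference conjugate set to 1 (log).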

[2] = system: aggregated human αSyn; assay: Antibody-inducing ability in cynomolgus monkeys: ELISA antibody titer with respect to aggregated human αSyn; format: in vivo; conditions: i.m. three times at 2-week interval, Alum; AJ conjugates 2,000 μg/monkey, KLH-DMPVDPDN 75 μg/monkey; FIG. 4B
Procedure: The antibody-inducing ability of the AJ-human αSyn peptide conjugate with respect to human αSyn and aggregated human αSyn in cynomolgus monkeys was evaluated. The AJ-human αSyn peptide conjugates (AJ-p54, AJ-p150, AJ-p283, AJ-p142, and AJ-p273) (2,000 μg/monkey) and KLH-DMPVDPDN (75 μg/monkey) were intramuscularly administered to cynomolgus monkeys (males, 3 to 7 years old, SNBL, Ltd.) three times at a 2-week interval using Alum (InvivoGen, 200 μg/monkey) as an adjuvant. Blood was collected before administration and 4, 6, 8, and 10 weeks after the first administration to recover the serum. ELISA was performed by the following method.
96-well plates were coated with human αSyn (Sigma-Aldrich) or aggregated human αSyn (StressMarq Biosciences Inc.) at 0.2 μg/well or 15 ng/well. After washing with PBST once, blocking was performed with 3% skim milk (FUJIFILM Wako Pure Chemical Corporation). After washing with PBST three times, diluted serum was added to cause a reaction at room temperature for 1 hour. Furthermore, after washing with PBST three times, Goat anti-Monkey IgG-HRP (Bio-Rad Laboratories, Inc.) was added to cause a reaction at room temperature for 1 hour. […] An equal volume of a TMB Stop Solution (KPL) was added to stop the reaction, and the absorbance at 450 nm was measured.

With “KLH-C-DMPVDPDN ({KLH}-CDMPVDPDN) [KLH-DMPVDPDN, comparison vaccine, reference compound]” the “Antibody-inducing ability regarding the aggregated human αSyn (in words)” value ([1]; Example 2, balb/c mice) was “very weak”, the “Antibody titer with respect to aggregated human αSyn (N = 4 − 6, mean ± standard deviation)” value ([1]; Example 2, balb/c mice, i.m. twice at 2-week interval, Alum, AJ conjugates 250 μg/mouse, KLH-DMPVDPDN 25 μg/mouse, serum 2 weeks after second administration) was 208 ± 205 and the “Induction of the antibody to aggregated human αSyn (in words)” value ([1]; Example 4, balb/c mice) was “did not induce the antibody to aggregated human αSyn”. The “Antibody titer with respect to aggregated human αSyn (mean ± standard deviation)” value ([1]; Example 4, balb/c mice, i.m. twice at 2-week interval, Alum, AJ conjugates 250 μg/mouse, KLH-DMPVDPDN 25 μg/mouse) was 36 ± 20 and the “Induction of the antibody to aggregated human αSyn in cynomolgus monkeys” value [2] was “not induced”.
